From paper PMC4434323

Molecular target: T1, F52B5.7 (F52B5.7) (Caenorhabditis elegans) (UniProt Q7YWZ7)
T1 sequence: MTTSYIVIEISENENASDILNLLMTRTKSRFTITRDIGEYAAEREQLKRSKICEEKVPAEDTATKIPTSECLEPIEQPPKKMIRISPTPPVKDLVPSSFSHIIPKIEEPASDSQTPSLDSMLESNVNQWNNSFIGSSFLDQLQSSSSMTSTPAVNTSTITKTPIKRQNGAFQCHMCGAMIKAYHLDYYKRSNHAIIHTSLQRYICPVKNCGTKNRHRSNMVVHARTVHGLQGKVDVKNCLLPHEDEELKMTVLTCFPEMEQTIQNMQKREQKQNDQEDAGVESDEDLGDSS

Row | Sequence | binding signal (PBM E-score (-0.5 to 0.5))
1 | GCCCCATA (double strand) [8-mer GCCCCATA] | 0.487
2 | ATGGGTAC (double strand) [8-mer ATGGGTAC] | 0.488
3 | CCCATGGG (double strand) [8-mer CCCATGGG] | 0.485
4 | CCCCATGA (double strand) [8-mer CCCCATGA] | 0.495
5 | ATGGGGTA (double strand) [8-mer ATGGGGTA] | 0.488
6 | GTACCATA (double strand) [8-mer GTACCATA] | 0.487
7 | CCCCATAA (double strand) [8-mer CCCCATAA] | 0.495
8 | ATGGATAC (double strand) [8-mer ATGGATAC] | 0.485
9 | CCATGGGG (double strand) [8-mer CCATGGGG] | 0.482

Molecular target: T2, Y44A6D.3 (Y44A6D.3) (Caenorhabditis elegans) (UniProt Q9XXE0)
T2 sequence: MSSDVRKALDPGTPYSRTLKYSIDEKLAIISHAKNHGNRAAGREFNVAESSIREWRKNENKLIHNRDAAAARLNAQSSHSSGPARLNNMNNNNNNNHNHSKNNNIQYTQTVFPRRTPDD

Row | Sequence | binding signal (PBM E-score (-0.5 to 0.5))
10 | CCGCGCGG (double strand) [8-mer CCGCGCGG] | 0.495

Molecular target: T3, Y75B8A.6 (Y75B8A.6) (Caenorhabditis elegans) (UniProt A0A168H365)
T3 sequence: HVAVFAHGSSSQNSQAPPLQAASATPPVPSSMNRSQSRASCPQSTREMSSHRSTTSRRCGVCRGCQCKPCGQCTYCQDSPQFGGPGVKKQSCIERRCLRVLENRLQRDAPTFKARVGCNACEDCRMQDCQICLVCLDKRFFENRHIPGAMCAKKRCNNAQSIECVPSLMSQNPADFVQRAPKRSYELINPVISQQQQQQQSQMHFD

Row | Sequence | binding signal (PBM E-score (-0.5 to 0.5))
11 | CGCGGAAC (double strand) [8-mer CGCGGAAC] | 0.454
12 | CGCGGCGC (double strand) [8-mer CGCGGCGC] | 0.461
13 | CGCGGAAA (double strand) [8-mer CGCGGAAA] | 0.457
14 | CCGCGCGG (double strand) [8-mer CCGCGCGG] | 0.465
15 | CGCGCGCG (double strand) [8-mer CGCGCGCG] | 0.476
16 | GCGCGCGC (double strand) [8-mer GCGCGCGC] | 0.465
17 | CGCGCGGC (double strand) [8-mer CGCGCGGC] | 0.451
18 | CCGCGGAA (double strand) [8-mer CCGCGGAA] | 0.468
19 | CCGCGCGC (double strand) [8-mer CCGCGCGC] | 0.462
20 | CCCGCGGG (double strand) [8-mer CCCGCGGG] | 0.451
21 | CCGCGGGA (double strand) [8-mer CCGCGGGA] | 0.458
22 | GCGCGCAA (double strand) [8-mer GCGCGCAA] | 0.458
23 | TCCGCGGA (double strand) [8-mer TCCGCGGA] | 0.471

Molecular target: T4, ceh-52 (C07E3.5) (Caenorhabditis elegans) (UniProt Q17788)
T4 sequence: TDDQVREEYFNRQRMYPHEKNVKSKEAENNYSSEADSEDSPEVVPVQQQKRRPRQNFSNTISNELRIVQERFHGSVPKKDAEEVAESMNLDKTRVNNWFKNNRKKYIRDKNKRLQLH

Row | Sequence | binding signal (PBM E-score (-0.5 to 0.5))
24 | GAGTTATA (double strand) [8-mer GAGTTATA] | 0.465
25 | GGGGTTAA (double strand) [8-mer GGGGTTAA] | 0.454
26 | AGTGTTAT (double strand) [8-mer AGTGTTAT] | 0.454

Molecular target: T5, efl-2 (Y48C3A.17) (Caenorhabditis elegans) (UniProt A5HWA8)
T5 sequence: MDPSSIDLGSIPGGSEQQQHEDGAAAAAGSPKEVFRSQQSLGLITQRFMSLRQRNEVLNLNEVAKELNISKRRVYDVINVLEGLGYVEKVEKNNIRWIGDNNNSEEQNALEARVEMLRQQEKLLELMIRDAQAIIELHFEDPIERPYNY

Row | Sequence | binding signal (PBM E-score (-0.5 to 0.5))
27 | CGCGCGCG (double strand) [8-mer CGCGCGCG] | 0.494
28 | GCGCGCGC (double strand) [8-mer GCGCGCGC] | 0.495

Molecular target: klf-3 (F54H5.4) (Caenorhabditis elegans) (UniProt Q65ZG6)
Sequence (Q65ZG6 180-315): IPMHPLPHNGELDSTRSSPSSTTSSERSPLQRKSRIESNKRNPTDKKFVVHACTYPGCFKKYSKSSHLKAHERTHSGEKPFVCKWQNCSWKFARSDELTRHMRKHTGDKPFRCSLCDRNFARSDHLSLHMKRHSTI

Row | Sequence | binding signal (PBM E-score (-0.5 to 0.5))
29 | CCCCGCCC (double strand) [8-mer CCCCGCCC] | 0.489
30 | CCCGCCCA (double strand) [8-mer CCCGCCCA] | 0.485
31 | AGGGCGTG (double strand) [8-mer AGGGCGTG] | 0.491
32 | CACGCCCA (double strand) [8-mer CACGCCCA] | 0.49
33 | CCACGCCC (double strand) [8-mer CCACGCCC] | 0.494
34 | TACGCCCA (double strand) [8-mer TACGCCCA] | 0.486
35 | AACGCCCA (double strand) [8-mer AACGCCCA] | 0.483
36 | CCACACCC (double strand) [8-mer CCACACCC] | 0.486
37 | AGGGCGTA (double strand) [8-mer AGGGCGTA] | 0.484
38 | ACGCCCAT (double strand) [8-mer ACGCCCAT] | 0.49
39 | CTACGCCC (double strand) [8-mer CTACGCCC] | 0.48
40 | ATACGCCC (double strand) [8-mer ATACGCCC] | 0.48
41 | AAGGGCGT (double strand) [8-mer AAGGGCGT] | 0.487
42 | CAACGCCC (double strand) [8-mer CAACGCCC] | 0.482

Molecular target: T6, lsl-1 (F52F12.4) (Caenorhabditis elegans) (UniProt O02273)
T6 sequence: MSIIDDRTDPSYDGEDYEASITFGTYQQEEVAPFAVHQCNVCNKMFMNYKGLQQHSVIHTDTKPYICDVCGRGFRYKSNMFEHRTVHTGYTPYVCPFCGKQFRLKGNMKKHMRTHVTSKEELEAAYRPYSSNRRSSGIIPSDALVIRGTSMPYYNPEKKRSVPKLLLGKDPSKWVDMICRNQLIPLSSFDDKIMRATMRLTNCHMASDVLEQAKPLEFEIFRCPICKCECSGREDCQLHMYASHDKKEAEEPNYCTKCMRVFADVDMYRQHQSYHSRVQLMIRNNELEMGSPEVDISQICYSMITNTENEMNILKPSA

Row | Sequence | binding signal (PBM E-score (-0.5 to 0.5))
43 | CTACGGTA (double strand) [8-mer CTACGGTA] | 0.491
44 | GTACGGTA (double strand) [8-mer GTACGGTA] | 0.494
45 | GTACAGTA (double strand) [8-mer GTACAGTA] | 0.495
46 | ATACCGTA (double strand) [8-mer ATACCGTA] | 0.492
47 | GTACTGTA (double strand) [8-mer GTACTGTA] | 0.497
48 | TACAGTAA (double strand) [8-mer TACAGTAA] | 0.495
49 | TACCGTAA (double strand) [8-mer TACCGTAA] | 0.493
50 | ATACGGTA (double strand) [8-mer ATACGGTA] | 0.495
51 | CTACAGTA (double strand) [8-mer CTACAGTA] | 0.498
52 | TACTGTAA (double strand) [8-mer TACTGTAA] | 0.49
53 | TACGGTAA (double strand) [8-mer TACGGTAA] | 0.492
54 | ATACAGTA (double strand) [8-mer ATACAGTA] | 0.491
55 | ATACTGTA (double strand) [8-mer ATACTGTA] | 0.494
56 | CTACCGTA (double strand) [8-mer CTACCGTA] | 0.498
57 | CTACTGTA (double strand) [8-mer CTACTGTA] | 0.491

System: T7, syd-9 (ZK867.1) (Caenorhabditis elegans)
T7 sequence: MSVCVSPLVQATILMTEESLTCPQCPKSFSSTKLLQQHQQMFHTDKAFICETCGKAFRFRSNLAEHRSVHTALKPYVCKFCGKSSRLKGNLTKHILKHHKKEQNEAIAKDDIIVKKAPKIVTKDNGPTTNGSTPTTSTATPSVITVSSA

Row | Sequence | binding signal (PBM E-score (-0.5 to 0.5))
58 | GTACGGTA (double strand) [8-mer GTACGGTA] | 0.492
59 | GTACAGTA (double strand) [8-mer GTACAGTA] | 0.495
60 | GTACTGTA (double strand) [8-mer GTACTGTA] | 0.496
61 | TACAGTAA (double strand) [8-mer TACAGTAA] | 0.494
62 | CTACAGTA (double strand) [8-mer CTACAGTA] | 0.49
63 | TACTGTAA (double strand) [8-mer TACTGTAA] | 0.494
64 | ATACAGTA (double strand) [8-mer ATACAGTA] | 0.492
65 | ATACTGTA (double strand) [8-mer ATACTGTA] | 0.493

System: T8, ztf-14 (M163.2) (Caenorhabditis elegans)
T8 sequence: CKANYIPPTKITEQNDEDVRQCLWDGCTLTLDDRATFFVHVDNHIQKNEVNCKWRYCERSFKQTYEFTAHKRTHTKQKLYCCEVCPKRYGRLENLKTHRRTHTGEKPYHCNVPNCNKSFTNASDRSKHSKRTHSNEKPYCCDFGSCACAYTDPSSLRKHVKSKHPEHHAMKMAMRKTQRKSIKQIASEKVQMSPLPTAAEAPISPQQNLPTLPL

Row | Sequence | binding signal (PBM E-score (-0.5 to 0.5))
66 | GACCACCA (double strand) [8-mer GACCACCA] | 0.454
67 | AGGTGGTC (double strand) [8-mer AGGTGGTC] | 0.475
68 | GACCTCCC (double strand) [8-mer GACCTCCC] | 0.479
69 | GGCCACCC (double strand) [8-mer GGCCACCC] | 0.494
70 | GACCACCC (double strand) [8-mer GACCACCC] | 0.499
71 | AGACCACC (double strand) [8-mer AGACCACC] | 0.494
72 | ACCACCCA (double strand) [8-mer ACCACCCA] | 0.469
73 | GGACCACC (double strand) [8-mer GGACCACC] | 0.495
74 | GACCCCCC (double strand) [8-mer GACCCCCC] | 0.478
75 | GACCACAC (double strand) [8-mer GACCACAC] | 0.488
76 | AGGGTAAA (double strand) [8-mer AGGGTAAA] | 0.46
77 | AGGCCACC (double strand) [8-mer AGGCCACC] | 0.453
78 | ATGGGTGG (double strand) [8-mer ATGGGTGG] | 0.452
79 | ACCACCCT (double strand) [8-mer ACCACCCT] | 0.463
